T1: Torpedo californica muscle-type nicotinic acetylcholine receptor δ subunit (Torpedo californica (Tetronarce …, UniProt P02718 22-522))
T1 sequence (looked up): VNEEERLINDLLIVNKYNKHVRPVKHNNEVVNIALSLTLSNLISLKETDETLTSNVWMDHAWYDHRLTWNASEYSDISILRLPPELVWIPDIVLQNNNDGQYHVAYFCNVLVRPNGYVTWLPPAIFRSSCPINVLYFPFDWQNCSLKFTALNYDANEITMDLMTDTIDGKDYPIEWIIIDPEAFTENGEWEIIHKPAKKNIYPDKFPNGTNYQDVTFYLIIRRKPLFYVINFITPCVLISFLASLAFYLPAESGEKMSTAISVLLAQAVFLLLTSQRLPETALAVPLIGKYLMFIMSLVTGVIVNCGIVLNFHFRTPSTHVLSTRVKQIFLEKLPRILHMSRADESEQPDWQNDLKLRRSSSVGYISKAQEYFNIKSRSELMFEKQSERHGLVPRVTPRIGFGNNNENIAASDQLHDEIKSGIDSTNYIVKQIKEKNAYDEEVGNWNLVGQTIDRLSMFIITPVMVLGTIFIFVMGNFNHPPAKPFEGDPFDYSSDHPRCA

B1: Torpedo californica muscle-type nicotinic acetylcholine receptor β subunit (natural protein, UniProt P02712 25-493, looked up)
chain: SVMEDTLLSVLFETYNPKVRPAQTVGDKVTVRVGLTLTNLLILNEKIEEMTTNVFLNLAWTDYRLQWDPAAYEGIKDLRIPSSDVWQPDIVLMNNNDGSFEITLHVNVLVQHTGAVSWQPSAIYRSSCTIKVMYFPFDWQNCTMVFKSYTYDTSEVTLQHALDAKGEREVKEIVINKDAFTENGQWSIEHKPSRKNWRSDDPSYEDVTFYLIIQRKPLFYIVYTIIPCILISILAILVFYLPPDAGEKMSLSISALLAVTVFLLLLADKVPETSLSVPIIIRYLMFIMILVAFSVILSVVVLNLHHRSPNTHTMPNWIRQIFIETLPPFLWIQRPVTTPSPDSKPTIISRANDEYFIRKPAGDFVCPVDNARVAVQPERLFSEMKWHLNGLTQPVTLPQDLKEAVEAIKYIAEQLESASEFDDLKKDWQYVAMVADRLFLYVFFVICSIGTFSIFLDASHNVPPDNPFA

Key:
[1] = target: B1; assay: cryo-EM structure
[2] = target: T1, Torpedo californica muscle-type …; assay: cryo-EM structure

Row | Binder | binding result [1] | binding result [2]
1 | Torpedo californica muscle-type nicotinic acetylcholine receptor α subunit (natural protein, UniProt P02710 25-461, looked up) SEHETRLVANLLENYNKVIRPVEHHTHFVDITVGLQLIQLISVDEVNQIVETNVRLRQQWIDVRLRWNPADYGGIKKIRLPSDDVWLPDLVLYNNADGDFAIVHMTKLLLDYTGKIMWTPPAIFKSYCEIIVTHFPFDQQNCTMKLGIWTYDGTKVSISPESDRPDLSTFMESGEWVMKDYRGWKHWVYYTCCPDTPYLDITYHFIMQRIPLYFVVNVIIPCLLFSFLTGLVFYLPTDSGEKMTLSISVLLSLTVFLLVIVELIPSTSSAVPLIGKYMLFTMIFVISSIIITVVVINTHHRSPSTHTMPQWVRKIFIDTIPNVMFFSTMKRASKEKQENKIFADDIDISDISGKQVTGEVIFQTPLIKNPDVKSAIEGVKYIAEHMKSDEESSNAAEEWKYVAMVIDHILLCVFMLICIIGTVSVFAGRLIELSQEG | binds | –
2 | B1 | – | binds

From article PMC9531584 (Nature structural & molecular biology, 2022)
